From publication PMC6786531

Columns and labels:
[1] = molecular target: Paclitaxel-stabilised microtubules of unlabelled porcine brain tubulin (porcine) (UniProt P02550)
[2] = molecular target: Paclitaxel-stabilised microtubules containing 10% X-rhodamine-labelled and 10% biotin-labelled tubulin (porcine) (UniProt P02550)
[3] = molecular target: P. falciparum kinesin-8X motor domain with C-terminal SNAPf tag, biotinylated (Pfkinesin-8X-MD-SNAP) (P. falciparum)
[4] = molecular target: P. berghei kinesin-8X motor domain with C-terminal SNAPf tag, biotinylated (Pbkinesin-8X-MD-SNAP) (P. berghei)

Substance | MT-stimulated ATPase activity, K1/2(MT) (enzyme-coupled assay, 250 nM motor domain, 0-6 uM paclitaxel-stabilised MTs, 37°C) [1] | MT-stimulated ATPase activity, Vmax (enzyme-coupled assay, 37°C) [1] | MT depolymerization rate with AMPPNP (TIRF microscopy, 2.5 uM motor domain, 5 mM nucleotide, room temperature) [2] | MT depolymerization rate with ATP (TIRF microscopy, 2.5 uM motor domain, 5 mM nucleotide, room temperature) [2] | MT-stimulated ATPase activity, K1/2(MT) (enzyme-coupled assay, 250 nM motor domain, 0-6 uM paclitaxel-stabilised MTs, 26°C) [1] | MT-stimulated ATPase activity, Vmax (enzyme-coupled assay, 26°C) [1] | MT gliding velocity on surface-held biotinylated motor domain (TIRF microscopy, 5 mM ATP, room temperature) [3] | MT gliding velocity on surface-held biotinylated motor domain (TIRF microscopy, 5 mM ATP, room temperature) [4]
P. berghei kinesin-8X motor domain (Pbkinesin-8X-MD) (domain or fragment) | 2.2 µM | 2.2 ATP/s | 1.8 nm/s | 4.3 nm/s | – | – | – | –
P. falciparum kinesin-8X motor domain (Pfkinesin-8X-MD) (domain or fragment) | – | – | 0.3 nm/s | 0.5 nm/s | 1.3 µM | 6.5 ATP/s | – | –
Paclitaxel-stabilised microtubules containing 10% X-rhodamine-labelled tubulin (from UniProt P02550 1-451) (complex) | – | – | – | – | – | – | 3.7 nm/s | 17.8 nm/s
